# B1: Vacuolar protein sorting-associated protein 33B (Homo sapiens), Q9H267 (parent)
# chain: MAFPHRPDAPELPDFSMLKRLARDQLIYLLEQLPGKKDLFIEADLMSPLDRIANVSILKQHEVDKLYKVENKPALSSNEQLCFLVRPRIKNMRYIASLVNADKLAGRTRKYKVIFSPQKFYACEMVLEEEGIYGDVSCDEWAFSLLPLDVDLLSMELPEFFRDYFLEGDQRWINTVAQALHLLSTLYGPFPNCYGIGRCAKMAYELWRNLEEEEDGETKGRRPEIGHIFLLDRDVDFVTALCSQVVYEGLVDDTFRIKCGSVDFGPEVTSSDKSLKVLLNAEDKVFNEIRNEHFSNVFGFLSQKARNLQAQYDRRRGMDIKQMKNFVSQELKGLKQEHRLLSLHIGACESIMKKKTKQDFQELIKTEHALLEGFNIRESTSYIEEHIDRQVSPIESLRLMCLLSITENGLIPKDYRSLKTQYLQSYGPEHLLTFSNLRRAGLLTEQAPGDTLTAVESKVSKLVTDKAAGKITDAFSSLAKRSNFRAISKKLNLIPRVDGEYDLKVPRDMAYVFGGAYVPLSCRIIEQVLERRSWQGLDEVVRLLNCSDFAFTDMTKEDKASSESLRLILVVFLGGCTFSEISALRFLGREKGYRFIFLTTAVTNSARLMEAMSEVKA
# partner: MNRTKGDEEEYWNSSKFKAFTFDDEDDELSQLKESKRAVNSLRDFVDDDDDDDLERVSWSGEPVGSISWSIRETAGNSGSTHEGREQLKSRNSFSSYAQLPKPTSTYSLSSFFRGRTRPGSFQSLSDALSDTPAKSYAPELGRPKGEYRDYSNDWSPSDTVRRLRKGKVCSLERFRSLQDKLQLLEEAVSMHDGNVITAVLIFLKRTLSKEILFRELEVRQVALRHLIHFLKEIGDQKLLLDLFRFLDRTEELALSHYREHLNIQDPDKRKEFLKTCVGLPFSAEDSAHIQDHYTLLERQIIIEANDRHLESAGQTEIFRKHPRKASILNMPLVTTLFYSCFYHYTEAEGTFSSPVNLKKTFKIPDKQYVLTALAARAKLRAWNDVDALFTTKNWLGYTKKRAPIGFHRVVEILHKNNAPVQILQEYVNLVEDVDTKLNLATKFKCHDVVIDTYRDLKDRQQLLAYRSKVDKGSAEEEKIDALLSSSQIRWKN
# Variants of: B1
# Settings: with spe39_human VIPAS39, Q9H9C1
row,effect of a mutation on the interaction,Variant
1,decreasing interaction strength,G131E
